Reference: paper PMC10668032, “Altered binding affinity of SIX1-Q177R correlates with enhanced WNT5A and WNT pathway effector expression in Wilms tumor”

Biological target: T1, SIX1-Q177R (human, UniProt Q15475 1-284, Q177R)
T1 sequence: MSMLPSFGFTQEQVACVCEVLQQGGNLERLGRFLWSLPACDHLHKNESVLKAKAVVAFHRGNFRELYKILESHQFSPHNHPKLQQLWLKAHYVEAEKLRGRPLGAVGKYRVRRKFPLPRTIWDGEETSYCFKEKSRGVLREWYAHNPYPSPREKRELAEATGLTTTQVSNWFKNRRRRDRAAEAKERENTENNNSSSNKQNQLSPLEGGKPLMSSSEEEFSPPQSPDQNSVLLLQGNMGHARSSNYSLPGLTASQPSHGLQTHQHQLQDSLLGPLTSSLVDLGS
Test: EMSA; EMSA: Active Motif Gelshift or Thermo LightShift chemiluminescent kit binding buffer, no glycerol, no poly d(I-C), RT 25 min; protein dilutions 1-300 nM; 6% gel in 0.5x TBE; pH and salt not given
Conditions: protein: recombinant; tags: N-terminal HA from pGEX-6p1-N-HA (GST removed with PreScission); label: biotin 3' end (both strands, Pierce 3' end-labeling kit); blunt

B1: WNT5A_promoter_EMSA (dsDNA)
DNA 1: CCCGCCCTAAGTGTCAAATTTCCTCCAGGGGAG
DNA 2: CTCCCCTGGAGGAAATTTGACACTTAGGGCGGG
binding signal: ~10 fold higher affinity than SIX1 on same probe
